T1: HMGB1 (amphoterin) (UniProt P09429 1-215, limits assumed)
T1 sequence (looked up): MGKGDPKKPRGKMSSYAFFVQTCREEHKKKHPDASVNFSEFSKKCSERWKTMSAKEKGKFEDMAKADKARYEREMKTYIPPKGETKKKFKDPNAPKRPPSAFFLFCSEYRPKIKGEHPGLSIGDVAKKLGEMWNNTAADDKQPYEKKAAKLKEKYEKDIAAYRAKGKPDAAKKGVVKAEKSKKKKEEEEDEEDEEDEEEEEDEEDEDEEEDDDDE

T2: S100A9 (UniProt P06702 1-114, limits assumed)
T2 sequence (looked up): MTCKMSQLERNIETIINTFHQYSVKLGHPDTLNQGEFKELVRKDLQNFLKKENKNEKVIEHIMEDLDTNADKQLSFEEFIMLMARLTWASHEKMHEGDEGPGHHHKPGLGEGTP

T3: S100A12 (UniProt P80511 1-92, limits assumed)
T3 sequence (looked up): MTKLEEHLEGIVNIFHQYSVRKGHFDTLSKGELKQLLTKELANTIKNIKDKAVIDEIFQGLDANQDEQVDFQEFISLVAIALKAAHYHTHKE


How the values were obtained:
Assay in all cases: ELISA, ligand coated on plate, RAGE-Fc titrated, anti-IgG Fc-HRP detection; apparent Kd
[1] = target: T1, HMGB1 (amphoterin)
Description: (§1) Functional ELISA assays were performed to assess the ligand binding characteristics of RAGE-Fc fusion proteins. Apparent binding affinities of RAGE-Fc fusion proteins to the RAGE ligands CML-HSA, HMGB1, S100A9 and S100A12 were measured for the following fusion proteins: Construct #1 (SEQ ID NO: 5), Construct #9 (SEQ ID NO: 53), Construct #10 (SEQ ID NO: 12), Construct #12 (SEQ ID NO: 15), and Construct #16 (SEQ ID NO: 16). Previous experiments were carried out to determine fundamental functionality of an ELISA, optimal coating concentrations and volumes, a dynamic range for the RAGE-Fc constructs, as well as optimized antibody dilutions and TMB development times.
(§2) RAGE ligands CML-HSA, HMGB1, S100A9 and S100A12 were separately coated onto a coated plate (MaxiSorp™) at a concentration of 50 nanomolar (nM), 100 microliters (μL) per well. RAGE ligand CML-HSA was separately coated onto a coated plate (MaxiSorp™) at a concentration of 100 nanograms (ng), 100 μL per well. The plates were then incubated overnight at 4° C. to allow the protein to bind to the plate coating. Following the coating step, the plates were washed once with 150 μL of wash solution (2.67 mM potassium chloride, […], 136.9 mM sodium chloride, 8.10 mM sodium phosphate dibasic, 0.05% Tween-20). […] After the blocking step, two washes were performed with the wash solution. The RAGE-Fc fusion protein was then incubated on the wells in log10 dilution with each separate ligand for 120 minutes at 37° C. while shaking. After the RAGE-Fc binding step, three washes were performed with the wash solution. Binding of the RAGE-Fc fusion to […], HMGB1, S100A9, and S100A12 was detected with a horseradish peroxidase (HRP) conjugated antibody with antigen specificity to IgG Fc (Abcam, Cat. No. ab99759). 100 μL of antibody diluted 1:5000 in DBPS was added to the assay wells, followed by 60 minutes of incubation at 37° C. while shaking. The wells were then washed four times with the wash solution. 100 μL of TMB (ThermoFisher Scientific, Cat. No. 34029) was then added to each well.

[2] = target: T2, S100A9
Description: as §1, §2

[3] = target: T3, S100A12
Description: as §1, §2

[4] = target: T4, CML-HSA (carboxymethylated human serum albumin) (human, UniProt P02768 25-609, carboxymethylated (CML); modified sites not stated)
T4 construct: An advanced glycation end-product form of HSA, coated on the ELISA plate
Description: as §1, §2

T4 sequence (P02768 25-609 limits assumed): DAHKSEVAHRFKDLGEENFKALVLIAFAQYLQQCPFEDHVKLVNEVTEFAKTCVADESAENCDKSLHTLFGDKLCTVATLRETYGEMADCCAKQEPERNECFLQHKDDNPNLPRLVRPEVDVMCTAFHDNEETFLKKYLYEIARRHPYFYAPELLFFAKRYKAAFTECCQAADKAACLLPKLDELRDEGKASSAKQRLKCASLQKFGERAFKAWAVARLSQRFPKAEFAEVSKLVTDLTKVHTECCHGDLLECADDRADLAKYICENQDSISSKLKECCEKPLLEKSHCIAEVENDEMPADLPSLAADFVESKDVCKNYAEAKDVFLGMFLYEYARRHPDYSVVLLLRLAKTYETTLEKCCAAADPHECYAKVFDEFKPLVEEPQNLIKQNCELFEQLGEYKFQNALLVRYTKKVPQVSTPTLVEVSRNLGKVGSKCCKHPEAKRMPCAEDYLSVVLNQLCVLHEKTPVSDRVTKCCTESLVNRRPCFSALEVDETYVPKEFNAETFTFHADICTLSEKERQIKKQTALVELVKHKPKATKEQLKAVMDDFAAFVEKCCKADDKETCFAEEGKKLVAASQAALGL

Kd [1]	Kd [2]	Kd [3]	Kd [4]	Binder
7 nM	25 nM	44 nM	39 nM	Construct #12: RAGE V-C1-C2-V1stem(M/A)-IgG2 lower hinge-(IgG4CH2-CH3) (Fc fusion, also called esRAGE-Fc fusion) AQNITARIGEPLVLKCKGAPKKPPQRLEWKLNTGRTEAWKVLSPQGGGPWDSVARVLPNGSLFLPAVGIQDEGIFRCQAMNRNGKETKSNYRVRVYQIPGKPEIVDSASELTAGVPNKVGTCVSEGSYPAGTLSWHLDGKPLVPNEKGVSVKEQTRRHPETGLFTLQSELMVTPARGGDPRPTFSCSFSPGLPRHRALRTAPIQPRVWEPVPLEEVQLVVEPEGGAVAPGGTVTLTCEVPAQPSPQIHWMKDGVPLPLPPSPVLILPEIGPQDQGTYSCVATHSSHGPQESRAVSISIIEPGEEGPTAGEGFDKVREAEDSPQHAVECPPCAPPVAGGPSVFLFPPKPKDTLMISRTPEVTCVVVDVSQEDPEVQFNWYVDGVEVHNAKTKPREEQFNSTYRVVSVLTVLHQDWLNGKEYKCKVSNKGLPSSIEKTISKAKGQPREPQVYTLPPSQEEMTKNQVSLTCLVKGFYPSDIAVEWESNGQPENNYKTTPPVLDSDGSFFLYSRLTVDKSRWQEGNVFSCSVMHEALHNHYTQKSLSLSLGK
7 nM	27 nM	36 nM	35 nM	Construct #16: RAGE V-C1-C2-V1stem(M/A)-IgG2 lower hinge-(IgG4CH2-CH3)-YTE (Fc fusion, also called #12 + YTE; esRAGE-Fc fusion) AQNITARIGEPLVLKCKGAPKKPPQRLEWKLNTGRTEAWKVLSPQGGGPWDSVARVLPNGSLFLPAVGIQDEGIFRCQAMNRNGKETKSNYRVRVYQIPGKPEIVDSASELTAGVPNKVGTCVSEGSYPAGTLSWHLDGKPLVPNEKGVSVKEQTRRHPETGLFTLQSELMVTPARGGDPRPTFSCSFSPGLPRHRALRTAPIQPRVWEPVPLEEVQLVVEPEGGAVAPGGTVTLTCEVPAQPSPQIHWMKDGVPLPLPPSPVLILPEIGPQDQGTYSCVATHSSHGPQESRAVSISIIEPGEEGPTAGEGFDKVREAEDSPQHAVECPPCAPPVAGGPSVFLFPPKPKDTLYITREPEVTCVVVDVSQEDPEVQFNWYVDGVEVHNAKTKPREEQFNSTYRVVSVLTVLHQDWLNGKEYKCKVSNKGLPSSIEKTISKAKGQPREPQVYTLPPSQEEMTKNQVSLTCLVKGFYPSDIAVEWESNGQPENNYKTTPPVLDSDGSFFLYSRLTVDKSRWQEGNVFSCSVMHEALHNHYTQKSLSLSLGK
